From article PMC6265470, “Structural, functional and biological insights into the role of Mycobacterium tuberculosis VapBC11 toxin–antitoxin system: targeting a tRNase to tackle mycobacterial adaptation” (Nucleic Acids Research, 2018)
Several values for one entry are separate records, joined by “and”; a condition that tells them apart may be missing. Identical values can stand only once.

B1: VapC11 toxin (purified alone) (enzyme)
chain: ILIDTSAWVEYFRATGSIAAVEVRRLLSEEAARIAMCEPIAMEILSGALDDNTHTTLERLVNGLPSLNVDDAIDFRAAAGIYRAARRAGETVRSINDCLIAALAIRHGARIVHRDADFDVIARITNLQAASFR
notes: VapC11 toxin (PIN domain ribonuclease) of the VapBC11 toxin-antitoxin system, Mycobacterium tuberculosis; 134 amino acids as printed; also called wild-type protein

Legend:
[1] = target: B1; experiment: SPR; Biacore 3000; VapC11 immobilised on a CM5 chip (up to 750 RU); five concentrations of VapB11 injected; 10 mM HEPES (pH 7.5), 150 mM NaCl, 25°C, 20 μl/min; 1:1 Langmuir model with drifting baseline; conditions: both partners purified
[2] = target: the molecule itself; experiment: […] (pH 8.0), 150 mM NaCl, […]
AUC = target: the molecule itself; experiment: AUC

Binder | Kd [1] [nM] | koff [1] [s⁻¹] | kon [1] [M⁻¹ s⁻¹] | stoichiometry N [2] | stoichiometry N (AUC)
VapB11 (shorter form, VapB11^6-72), (6x-His)-VapB11 (domain or fragment, Homodimer by AUC; also called antitoxin VapB11) MSRTNIDIDDELAAEVMRRFGLTTKRAAVDLALRRLVGSPLSREFLLGLEGVGWEGDLDDLRSDRPD | ~0.6 | 0.000133 | 1.15e+06 | 2 | 
B1 |  |  |  |  | 2 and 4
